For assay [1], the target named is Murine FcγRIIB extracellular domain (mouse) (UniProt P08101). Briefly: SPR, dissociation constant from binding at equilibrium on immobilized murine FcγRIIB extracellular domain, 37 °C.
Assay [2] has the same target. Briefly: SPR, binding at equilibrium, antibody injected at 37 °C over murine FcγRIIB extracellular domain amine-coupled to a CM5 chip, reference channel mouse CD200. A general note: SPR reads the build-up and loss of mass on a sensor chip optically.

UniProt P08101, sequence (P08101 30-210): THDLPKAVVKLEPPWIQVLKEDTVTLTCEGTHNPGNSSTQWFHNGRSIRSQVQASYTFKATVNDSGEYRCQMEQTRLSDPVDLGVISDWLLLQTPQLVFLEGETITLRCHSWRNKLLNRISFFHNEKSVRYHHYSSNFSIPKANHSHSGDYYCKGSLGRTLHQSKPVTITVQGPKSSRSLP

Regarding “JJ316+50 (JJ316 extended in the hinge with a 50 amino acid insertion from murine CD43) (antibody)”, the Kd in assay [1] and in assay [2] was 1.07 µM each time.
For the substance “chimeric Nivolumab in an extended form containing the 50-residue extension (antibody)”, the Kd in assay [1] and in assay [2] was 8.51 µM in each case.
As for “JJ316 (anti-rat CD28 antibody, superagonistic; BD Biosciences cat #554992)”, the Kd in assay [1] and in assay [2] was 3.02 µM throughout.

The values are drawn from patent publication US20220064300A1.
